Reference: PMC6105031, “The crystal structure of KSHV ORF57 reveals dimeric active sites important for protein stability and function” (PLoS Pathogens, 2018)

Tests used:
[1] = molecular target: GFP-tagged full-length ORF57 with all three disrupted nuclear localization signals (ORF57 mt1+2+3) (UniProt Q2HR75); experiment: nuclear translocation assay (fluorescence microscopy of cotransfected cells)
[2] = molecular target: the molecule itself; experiment: crystal structure; spindle-shaped crystal, sitting-drop vapor diffusion at 4°C, 0.1 M BIS-TRIS propane pH 7.0, 0.8 M lithium sulfate; space group P6(4)22, two molecules in the asymmetric unit, 3.5 Å
[3] = COS-1 cells, 50 double-color positive cells counted, parent: 88

Molecule | other: % cells with nuclear translocation [1, 3] | also measured
FLAG-tagged full-length ORF57 (from UniProt Q2HR75) C333S; H423L; C427S; C432S |  | other: % cells with nuclear translocation ([1]; n=50): 0%
FLAG-tagged full-length ORF57 (from UniProt Q2HR75) R325A; R327A | 4% | 
FLAG-tagged full-length ORF57 (from UniProt Q2HR75) W292P | 0% | 
C-terminal domain (CTD) of KSHV ORF57 (residues 167 to 455) (domain or fragment, KSHV ORF57 (MTA), residues 167 to 455, GenBank ABD28908.1; Crystallised as a dimer (spindle-shaped crystal) and as a monomer (cubic crystal, 4.0 M LiCl); also called ORF57-CTD; source: E. coli BL21 (DE3), purified (Ni-NTA, ULP1 digestion, Superdex 75); not shown: His6, N-terminal, cleaved; SUMO (Smt3 of Saccharomyces cerevisiae), N-terminal, cleaved) GVSDAVKKLRLPASMIIDGESPRFDDSIIPRHHGACFNVFIPAPPSHVPEVFTDRDITALIRAGGKDDELINKKISAKKIDHLHRQMLSFVTSRHNQAYWVSCRRETAAAGGLQTLGAFVEEQMTWAQTVVRHGGWFDEKDIDIILDTAIFVCNAFVTRFRLLHLSCVFDKQSELALIKQVAYLVAMGNRLVEACNLLGEVKLNFRGGLLLAFVLTIPGMQSRRSISARGQELFRTLLEYYRPGDVMGLLNVIVMEHHSLCRNSECAAATRAAMGSAKFNKGLFFYPLS |  | stoichiometry N [2]: 2
